Paper doi:10.1101/2022.04.20.488894

Target: α-Synuclein (UniProt P37840)
Test: cross-linking

“α-Synuclein (from UniProt P37840 1-140) (natural protein)” showed a P intra (intra-protein character) of the DSBU cross-link Lys-21 to Lys-32 of 77%.
